# B1: LOC100129726 (parent)
# chain: VHTGCHKKLGPEARRPRTRWGKN
# B2: SPDEF (parent)
# chain: FQELAGKELCAMSEEQFRQRSPLG
# Variants of: B1
# Experiment: protein stability index of a GFP-peptide fusion (GPS, HEK-293T) (PSI 1-6); higher = more stable
# Settings: c terminus: native
# 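Note: lentivirally expressed fusions sorted by FACS into six bins by GFP to DsRed ratio, PSI derived from sequencing read proportions per bin multiplied by bin number.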
row,Variant,protein stability index
1,VHTGEHKKLGPEARRPRTRWGKN [C5E],2.57
2,VHTGAHKKLGPEARRPRTRWGKN [C5A],2.57
3,VHTGFHKKLGPEARRPRTRWGKN [C5F],1.85
4,VHTGGHKKLGPEARRPRTRWGKN [C5G],2.34
5,VGTGCHKKLGPEARRPRTRWGKN [H2G],2.38
6,VWTGCHKKLGPEARRPRTRWGKN [H2W],1.38
7,VYTGCHKKLGPEARRPRTRWGKN [H2Y],1.85
8,VTTGCHKKLGPEARRPRTRWGKN [H2T],1.49
9,VMTGCHKKLGPEARRPRTRWGKN [H2M],2.79
10,VPTGCHKKLGPEARRPRTRWGKN [H2P],2.05
11,VQTGCHKKLGPEARRPRTRWGKN [H2Q],2.44
12,VDTGCHKKLGPEARRPRTRWGKN [H2D],1.82
13,VNTGCHKKLGPEARRPRTRWGKN [H2N],2.5
14,VLTGCHKKLGPEARRPRTRWGKN [H2L],2.38
15,VVTGCHKKLGPEARRPRTRWGKN [H2V],2.99
16,VRTGCHKKLGPEARRPRTRWGKN [H2R],4
17,VKTGCHKKLGPEARRPRTRWGKN [H2K],1.94
18,VATGCHKKLGPEARRPRTRWGKN [H2A],2.13
19,VHFGCHKKLGPEARRPRTRWGKN [T3F],1.95
20,VHYGCHKKLGPEARRPRTRWGKN [T3Y],1.01
21,VHIGCHKKLGPEARRPRTRWGKN [T3I],2.94
22,VHPGCHKKLGPEARRPRTRWGKN [T3P],1.67

row,Variant,protein stability index
1,VHDGCHKKLGPEARRPRTRWGKN [T3D],3.27
2,HHTGCHKKLGPEARRPRTRWGKN [V1H],2.43
3,RHTGCHKKLGPEARRPRTRWGKN [V1R],2.02
4,SHTGCHKKLGPEARRPRTRWGKN [V1S],1.99
5,CHTGCHKKLGPEARRPRTRWGKN [V1C],2.12
6,IHTGCHKKLGPEARRPRTRWGKN [V1I],2.54
7,EHTGCHKKLGPEARRPRTRWGKN [V1E],2.96
8,MHTGCHKKLGPEARRPRTRWGKN [V1M],1.73
9,LHTGCHKKLGPEARRPRTRWGKN [V1L],1.84
10,VHTVCHKKLGPEARRPRTRWGKN [G4V],2.14
11,VHTRCHKKLGPEARRPRTRWGKN [G4R],2.47
12,VHTLCHKKLGPEARRPRTRWGKN [G4L],2.91
13,VHTSCHKKLGPEARRPRTRWGKN [G4S],2.56
14,VHTFCHKKLGPEARRPRTRWGKN [G4F],2.72
15,VHTKCHKKLGPEARRPRTRWGKN [G4K],2.71
16,VHTICHKKLGPEARRPRTRWGKN [G4I],2.66
17,VHTDCHKKLGPEARRPRTRWGKN [G4D],2.33
18,VHTECHKKLGPEARRPRTRWGKN [G4E],3.67
19,VHTCCHKKLGPEARRPRTRWGKN [G4C],2.51
20,VHTMCHKKLGPEARRPRTRWGKN [G4M],2.44
21,VHTPCHKKLGPEARRPRTRWGKN [G4P],2.15
22,VHTNCHKKLGPEARRPRTRWGKN [G4N],1.01

# Variants of: B2
# Experiment: as above
# Settings: c terminus: a fixed tail appended
row,Variant,protein stability index
1,FQELAGKELCAMSEEQFPQRSPLG [R18P],2.92
2,FQELAGKELCAMSEEQFMQRSPLG [R18M],2.51
3,FQELAGKELCAMSEEQFNQRSPLG [R18N],2.96
4,FQELAGKELCAMSEEQFHQRSPLG [R18H],2.64
5,FQELAGKELCAMSEEQFGQRSPLG [R18G],2.9
6,FQELAGKELCAMSEEQFAQRSPLG [R18A],2.93
7,FQELAGKELCAMSEEQFTQRSPLG [R18T],2.83
8,FQELAGKELCAMSEEQFYQRSPLG [R18Y],2.29
9,FQELAGKELCAMSEEQFVQRSPLG [R18V],2.8
10,FQELAGKELCAMSEEQFDQRSPLG [R18D],3.37
11,FQELAGKELCAMSEEQFIQRSPLG [R18I],2.73
12,FQELAGKELCAMSEEQFKQRSPLG [R18K],2.46
13,FQELAGKELCAMSEEQFFQRSPLG [R18F],2.21
14,FQELAGKELCAMSEEQFSQRSPLG [R18S],2.82
15,FQELAGKELCAMSEEQFCQRSPLG [R18C],2.51
16,FQELAGKELCAMSEEQFQQRSPLG [R18Q],2.81
17,FQELAGKELCAMSEEQFLQRSPLG [R18L],2.76
18,FQELAGKELCAMSEEQFWQRSPLG [R18W],2
19,FQELAGKELCAMSEEQFEQRSPLG [R18E],3.31
20,FQELAGKELCAMSEEQFRQRSDLG [P22D],2.62
21,FQELAGKELCAMSEEQFRQRSFLG [P22F],2.43
22,FQELAGKELCAMSEEQFRQRSMLG [P22M],2.56
23,FQELAGKELCAMSEEQFRQRSCLG [P22C],2.62
24,FQELAGKELCAMSEEQFRQRSILG [P22I],2.42
25,FQELAGKELCAMSEEQFRQRSLLG [P22L],2.88

row,Variant,protein stability index
1,FQELAGKELCAMSEEQFRQRSHLG [P22H],3.45
2,FQELAGKELCAMSEEQFRQRSKLG [P22K],2.77
3,FQELAGKELCAMSEEQFRQRSGLG [P22G],2.61
4,FQELAGKELCAMSEEQFRQRSVLG [P22V],2.87
5,FQELAGKELCAMSEEQFRQRSNLG [P22N],2.59
6,FQELAGKELCAMSEEQFRQRSSLG [P22S],2.92
7,FQELAGKELCAMSEEQFRQRSRLG [P22R],2.53
8,FQELAGKELCAMSEEQFRQRSALG [P22A],2.64
9,FQELAGKELCAMSEEQFRQRSWLG [P22W],1.75
10,FQELAGKELCAMSEEQFRQRSYLG [P22Y],2.2
11,FQELAGKELCAMSEEQFRQRSQLG [P22Q],2.74
12,FQELAGKELCAMSEEQFRQRSTLG [P22T],2.63
13,FQELAGKELCAMSEEQFRQRSELG [P22E],3.15
14,FQELAGKELCAMSEEQFRHRSPLG [Q19H],2.93
15,FQELAGKELCAMSEEQFRPRSPLG [Q19P],2.74
16,FQELAGKELCAMSEEQFRTRSPLG [Q19T],3.11
17,FQELAGKELCAMSEEQFRCRSPLG [Q19C],2.67
18,FQELAGKELCAMSEEQFRGRSPLG [Q19G],2.53
19,FQELAGKELCAMSEEQFRSRSPLG [Q19S],2.45
20,FQELAGKELCAMSEEQFRFRSPLG [Q19F],2.23
21,FQELAGKELCAMSEEQFRERSPLG [Q19E],4.17
22,FQELAGKELCAMSEEQFRDRSPLG [Q19D],2.87
23,FQELAGKELCAMSEEQFRLRSPLG [Q19L],2.24
24,FQELAGKELCAMSEEQFRARSPLG [Q19A],2.67
25,FQELAGKELCAMSEEQFRWRSPLG [Q19W],1.59

# Source: the supplement of paper PMC10567573
